Test results: a protein production outcome set (Wang et al. 2014)

Experiment: label from the status in PepcDB records

Sequence	protein production
MSVPAIAPRRKRLADGLSVTQKVFVRSRNGGATKIVREHYLRSDIPCLSRSCTKCPQIVVPDAQNELPKFILSDSPLELSAPIGKHYVVLDTNVVLQAIDLLENPNCFFDVIVPQIVLDEVRNKSYPVYTRLRTLCRDSDDHKRFIVFHNEFSEHTFVERLPNETINDRNDRAIRKTCQWYSEHLKPYDINVVLVTNDRLNREAATKEVESNIITKSLVQYIELLPNADDIRDSIPQMDSFDKDLERDTFSDFTFPEYYSTARVMGGLKNGVLYQGNIQISEYNFLEGSVSLPRFSKPVLIVGQKNLNRAFNGDQVIVELLPQSEWKAPSSIVLDSEHFDVNDNPDIEAGDDDDNNESSSNTTVISDKQRRLLAKDAMIAQRSKKIQPTAKVVYIQRRSWRQYVGQLAPSSVDPQSSSTQNVFVILMDKCLPKVRIRTRRAAELLDKRIVISIDSWPTTHKYPLGHFVRDLGTIESAQAETEALLLEHDVEYRPFSKKVLECLPAEGHDWKAPTKLDDPEAVSKDPLLTKRKDLRDKLICSIDPPGCVDIDDALHAKKLPNGNWEVGVHIADVTHFVKPGTALDAEGAARGTSVYLVDKRIDMLPMLLGTDLCSLKPYVDRFAFSVIWELDDSANIVNVNFMKSVIRSREAFSYEQAQLRIDDKTQNDELTMGMRALLKLSVKLKQKRLEAGALNLASPEVKVHMDSETSDPNEVEIKKLLATNSLVEEFMLLANISVARKIYDAFPQTAMLRRHAAPPSTNFEILNEMLNTRKNMSISLESSKALADSLDRCVDPEDPYFNTLVRIMSTRCMMAAQYFYSGAYSYPDFRHYGLAVDIYTHFTSPIRRYCDVVAHRQLAGAIGYEPLSLTHRDKNKMDMICRNINRKHRNAQFAGRASIEYYVGQVMRNNESTETGYVIKVFNNGIVVLVPKFGVEGLIRLDNLTEDPNSAAFDEVEYKLTFVPTNSDKPRDVYVFDKVEVQVRSVMDPITSKRKAELLLK	failed
MSVPGPSSPDGALTRPPYCLEAGEPTPGLSDTSPDEGLIEDLTIEDKAVEQLAEGLLSHYLPDLQRSKQALQELTQNQVVLLDTLEQEISKFKECHSMLDINALFAEAKHYHAKLVNIRKEMLMLHEKTSKLKKRALKLQQKRQKEELEREQQREKEFEREKQLTARPAKRM	failed
MSVPQRPHQFVLTLSCPSAAGQVAAVVGLLDRHRCYVDELTVFDDDLSARFFVRCVFHATDDADALRVDALRREFEPIAERFRMQWAIHDVAARPKVLIMVSKLEHCLADLLFRWKMGELKMDIVGIVSNHPDFAPLAAQHGLPFRHFPITADTKAQQEAQWLDVFETSGAELVILARYMQVLSPEASARLANRAINIHHSFLPGFKGAKPYHQAHARGVKLIGATAHFVTDDLDEGPIIEQVVERVDHSYRPEQLLAVGRDVECITLARAVKAFIERRVFLNGDRTVVFQ	not failed
MSVRDLIPWSRGGGPAPSIYRGDDMDPFLSLHRNVNRLFDEVFRGFDTPSVLGRMAPLNGTWPGVEFSETDEEIRLTAEIPGLDENDVEVMLDDGVLTLRGEKKAETEDKDRQFSERYYGRFERRFGLGREVEDDKVAATFKNGVLTVTLPKTKRAQANAKRIAINGNK	failed
MSVRVYIGNLPRDIEQAELDAVFAEAGEVSAKLVTDRKTGKSRGFAFATVASDELADALIERFNGTEVQGSTLKLEKAQPRERDNEGGNNRRRSGGGGNDNRRSGKSAPRVISSGPEGFQPDPRWAQELEKLKELLAAQTVS	failed
MSVSIILMGLFVGALVGLTGVGGAALLTPLLIVLGINPSIAVGTDLVYNSITKLFGVASHWRQKTINFKLVKYLAIGSIPSASLAIGILHLFPAFHQHQEEIIKHALGYVLTLVAISIIVRLFLDRKLRPNRWQLMPLENKRALTILIGVVFGFIVGLTSIGSGSLFAIAMIYLFNMKASQIVGTDIAHAFLLVTAAGILNASFGSVDYMLAANLLLGSIPGVLIGSHLSPRFSPRPLQFIMASIILVSGLKLI	failed
